Results published in US20140377253A1.

The substances below were run against FcgRIIIA (UniProt P08637) (assay: FACS).
Sequence of FcgRIIIA (P08637 17-254): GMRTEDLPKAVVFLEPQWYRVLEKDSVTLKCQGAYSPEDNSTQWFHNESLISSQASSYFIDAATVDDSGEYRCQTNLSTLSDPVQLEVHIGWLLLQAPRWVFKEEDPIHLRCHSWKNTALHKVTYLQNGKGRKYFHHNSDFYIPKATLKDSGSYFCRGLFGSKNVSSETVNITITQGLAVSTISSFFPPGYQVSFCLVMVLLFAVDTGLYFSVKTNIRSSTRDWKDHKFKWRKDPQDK
For N297A, the EC50 was 3.67 nM.
Work on S267E yielded an EC50 of 1.24 nM.
SELF was tested, and the EC50 was 2.31 nM.
For L328F, the EC50 was 2.51 nM.

What follows are substances tested against FcgRIIB (UniProt P31994) (assay: FACS).
Sequence of FcgRIIB (P31994 43-310): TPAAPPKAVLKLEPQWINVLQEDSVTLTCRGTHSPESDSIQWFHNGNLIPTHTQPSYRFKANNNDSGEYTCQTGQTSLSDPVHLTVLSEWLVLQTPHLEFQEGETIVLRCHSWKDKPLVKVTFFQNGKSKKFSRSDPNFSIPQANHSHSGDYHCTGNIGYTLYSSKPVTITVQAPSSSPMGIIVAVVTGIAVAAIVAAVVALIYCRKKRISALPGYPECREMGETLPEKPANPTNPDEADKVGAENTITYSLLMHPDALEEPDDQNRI
For N297A, the EC50 was 2 nM.
S267E was tested, and the EC50 was 0.64 nM.
SELF showed an EC50 of 0.32 nM.
Substance L328F has an EC50 of 1.85 nM.
